Results published in paper PMC5291076, “Analyzing native membrane protein assembly in nanodiscs by combined non-covalent mass spectrometry and synthetic biology” (eLife, 2017).

B1: Phospho-N-acetylmuramyl-pentapeptide-transferase E.coli (enzyme, E. coli, UniProt P0A6W3 1-360, looked up)
chain: MLVWLAEHLVKYYSGFNVFSYLTFRAIVSLLTALFISLWMGPRMIAHLQKLSFGQVVRNDGPESHFSKRGTPTMGGIMILTAIVISVLLWAYPSNPYVWCVLVVLVGYGVIGFVDDYRKVVRKDTKGLIARWKYFWMSVIALGVAFALYLAGKDTPATQLVVPFFKDVMPQLGLFYILLAYFVIVGTGNAVNLTDGLDGLAIMPTVFVAGGFALVAWATGNMNFASYLHIPYLRHAGELVIVCTAIVGAGLGFLWFNTYPAQVFMGDVGSLALGGALGIIAVLLRQEFLLVIMGGVFVVETLSVILQVGSFKLRGQRIFRMAPIHHHYELKGWPEPRVIVRFWIISLMLVLIGLATLKVR
notes: MraY translocase of E. coli; theoretical mass of the construct 42.22 kDa; Dimer in DMPG and in DMPC/DMPG nanodiscs, monomer in DMPC nanodiscs; also called Ec-MraY; E. coli MraY; source: cell-free (CECF, E. coli A19 lysate), co-translationally inserted into nanodiscs, purified (Streptactin)
B2: Multidrug transporter EmrE (natural protein)
chain: MNPYIYLGGAILAEVIGTTLMKFSEGFTRLWPSVGTIICYCASFWLLAQTLAYIPTGIAYAIWSGVGIVLISLLSWGFFGQRLDLPAIIGMMLICAGVLIINLLSRSTPH
notes: small multidrug transporter EmrE; theoretical mass of the construct 13.00 kDa; source: cell-free (CECF, E. coli A19 lysate), co-translationally inserted into nanodiscs, purified (Streptactin)
B3: Phospho-N-acetylmuramyl-pentapeptide-transferase B.subtilis (enzyme, B. subtilis, UniProt Q03521 1-324, looked up)
chain: MLEQVILFTILMGFLISVLLSPILIPFLRRLKFGQSIREEGPKSHQKKSGTPTMGGVMIILSIIVTTIVMTQKFSEISPEMVLLLFVTLGYGLLGFLDDYIKVVMKRNLGLTSKQKLIGQIIIAVVFYAVYHYYNFATDIRIPGTDLSFDLGWAYFILVLFMLVGGSNAVNLTDGLDGLLSGTAAIAFGAFAILAWNQSQYDVAIFSVAVVGAVLGFLVFNAHPAKVFMGDTGSLALGGAIVTIAILTKLEILLVIIGGVFVIETLSVILQVISFKTTGKRIFKMSPLHHHYELVGWSEWRVVVTFWAAGLLLAVLGIYIEVWL
notes: MraY translocase of B. subtilis; theoretical mass of the construct 37.88 kDa; also called Bs-MraY; B. subtilis MraY; source: cell-free (CECF, E. coli A19 lysate), co-translationally inserted into nanodiscs, purified (Streptactin)
B4: Human proton channel - voltage sensing domain (domain or fragment, UniProt Q96D96 75-223, looked up)
chain: APAPGPAPRAPLDFRGMLRKLFSSHRFQVIIICLVVLDALLVLAELILDLKIIQPDKNNYAAMVFHYMSITILVFFMMEIIFKLFVFRLEFFHHKFEILDAVVVVVSFILDIVLLFQEHQFEALGLLILLRLWRVARIINGIIISVKTR
modifications: in some samples uniformly 15N, 2H isotope labeled
notes: voltage-sensing domain of the human proton channel Hv1, residues 75-223; lacks the intracellular domain; theoretical mass of the construct 20.80 kDa; Construct in pET15b described in Li et al., 2015; a C-terminal StrepII tag was added here by QuickChange mutagenesis; also called hHv1-VSD; hHv-1-VSD
B5: pH-gated potassium channel KcsA (natural protein)
chain: SALHWRAAGAATVLLVIVLLAGSYLAVLAERGAPGAQLITYPRALWWSVETATTVGYGDLYPVTLWGRLVAVVVMVAGITSFGLVTAALATWFVGREQERRGHFVRHSEKAAEEAYTRTTRALHERFDRLERMLDDNRR
modifications: in some samples uniformly 15N, 2H isotope labeled
notes: pH-gated potassium channel KcsA; theoretical mass of the construct 21.33 kDa (22.70 kDa labeled); The printed mass (21.33 kDa) is larger than the natural chain, so tags or extra residues beyond the StrepII tag may be present; source: cell-free (CECF, E. coli A19 lysate), co-translationally inserted into nanodiscs, purified (Streptactin)

Assays:
[1] = molecular target: Proteorhodopsin (green variant); experiment: native MS; LILBID-MS of PR synthesized in the presence of DH7PC and GDN and purified with 0.1% DH7PC; no nanodiscs
[2] = molecular target: Proteorhodopsin (green variant); experiment: native MS; LILBID-MS of the membrane protein in MSP1E3D1 (DMPG) nanodiscs; 50 mM ammonium acetate pH 6.8; anionic mode; laser pulse energy between 9.5 and 23 mJ; unlabeled and (KcsA) 15N, 2H labeled samples
[3] = molecular target: the molecule itself; experiment: as above
[4] = molecular target: the molecule itself; experiment: native MS; LILBID-MS of hHv1-VSD in nanodiscs of MSP1D1ΔH5 (19.49 kDa, His6-tag cleaved); unlabeled and 15N, 2H labeled samples

| Molecule | stoichiometry N [3] | also measured |
| --- | --- | --- |
| Proteorhodopsin (green variant) (natural protein) |  | stoichiometry N [1]: 2; stoichiometry N [2]: < 6 |
| B1 | 2 |  |
| B2 | 2 |  |
| B3 | 2 |  |
| B4 |  | stoichiometry N [4]: 2 |
| B5 | 4 |  |
